Experimental data as given in patent publication US20260035463A1 (MINGHUI PHARMACEUTICAL HANGZHOU, published 2026).

Molecular target: T1, recombinant human PD-1 protein (human, UniProt Q15116 25-167, limits assumed)
T1 construct: The construct is not described; also called human recombinant PD-1
Experiment: screening of the anti-PD-1 phage display library; method not detailed

T1 sequence (Q15116 25-167 limits assumed): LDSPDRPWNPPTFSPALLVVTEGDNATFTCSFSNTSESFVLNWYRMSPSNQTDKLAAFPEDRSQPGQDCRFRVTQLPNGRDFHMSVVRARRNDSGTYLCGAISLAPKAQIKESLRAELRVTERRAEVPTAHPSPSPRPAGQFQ

B1: Anti-PD-1 sdAb VHH (VHH)
VHH: QVQLVESGGGLVQPGGSLRLSCATSGSRRSIYAMGWFRQAPGKGLEFVAGIGWAYATTYYADSVKGRFTISRDNTKNTLYLQMNSLRAEDTAVYYCAADLDHSGFDYWGQGTLVTVSS
notes: Obtained from an alpaca phage display library; also called anti-PD-1 VHH antibody; VHH single-domain antibody
B1: binds.
